Here are results for two molecules from paper PMC11399261 (Nature Communications, 2024).

The target of experiment [1] is Orc2-ΔN200 containing ORC (S. cerevisiae, UniProt P54784;P32833;P54790;P54791;P50874;P38826). Kind of experiment: MCM loading assay on DNA beads.
Experiment [2] has as its target Orc2-I194E containing ORC (S. cerevisiae, UniProt P54784;P32833;P54790;P54791;P50874;P38826, I194E). In words: MCM loading assay on DNA beads.
Experiment [3] concerns the target origin recognition complex (ORC), wild type (S. cerevisiae, UniProt P54784;P32833;P54790;P54791;P50874;P38826). Kind of experiment: MCM loading assay on DNA beads.
Experiment [4] concerns the target Orc2-ΔN175 containing ORC (S. cerevisiae, UniProt P54784;P32833;P54790;P54791;P50874;P38826). Kind of experiment: MCM loading assay on DNA beads.
Another experiment addresses Cdt1-Mcm2-7 heptamer (S. cerevisiae, UniProt P47112;P29469;P24279;P30665;P29496;P53091;P38132). Kind of experiment: pull-down.

B1: His-SUMO-Cdc6 (natural protein)
chain: MSAIPITPTKRIRRNLFDDAPATPPRPLKRKKLQFTDVTPESSPEKLQFGSQSIFLRTKALLQKSSELVNLNSSDGALPARTAEYEQVMNFLAKAISEHRSDSLYITGPPGTGKTAQLDMIIRQKFQSLPLSLSTPRSKDVLRHTNPNLQNLSWFELPDGRLESVAVTSINCISLGEPSSIFQKIFDSFQDLNGPTLQIKNMQHLQKFLEPYHKKTTFVVVLDEMDRLLHANTSETQSVRTILELFLLAKLPTVSFVLIGMANSLDMKDRFLSRLNLDRGLLPQTIVFQPYTAEQMYEIVIQKMSSLPTIIFQPMAIKFAAKKCAGNTGDLRKLFDVLRGSIEIYELEKRFLLSPTRGSLNSAQVPLTPTTSPVKKSYPEPQGKIGLNYIAKVFSKFVNNNSTRTRIAKLNIQQKLILCTIIQSLKLNSDATIDESFDHYIKAITKTDTLAPLQRNEFLEICTILETCGLVSIKKTKCKGKTKRFVDKIDVDLDMREFYDEMTKISILKPFLH
With B1, the binding result in experiment [1], in experiment [2], in experiment [3] and in experiment [4] was “binds” throughout.

B2: GST-Orc2N200-I194E (domain or fragment)
chain: MLNGEDFVEHNDILSSPAKSRNVTPKRVDPHGERQLRRIHSSKKNLLERISLVGNERKNTSPDPALKPKTPSKAPRKRGRPRKIQEELTDRIKKDEKDTISSKKKRKLDKDTSGNVNEESKTSNNKQVMEKTGIKEKREREKIQVATTTYEDNVTPQTDDNFVSNSPEPPEPATPSKKSLTTNHDFTSPLKQIEMNNLKE
In the case of B2, the binding result with Cdt1-Mcm2-7 heptamer is “binds”.
